In the supplement of paper PMC9233669 one finds self-aminoacylation data, which are given here for 46 sequences.

The test system of data set [1] is biotinyl-Phe-oxazolone. The experiment in a line: self-aminoacylation, catalytic enhancement (BFO) (fold over background); higher = more active; k-Seq, kA / k0A0; sequences stand for … in GGGAAUGGAUCCACAUCUACGAAUUC…UUCACUGCAGACUUGACGAAGCUG
The procedure, abridged:
(§1)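 The uncatalyzed rate is the low-activity peak of a bimodal Gaussian fit, and catalytic enhancement is median kA divided by it. The kA values came from pseudo-first-order fits, with 1000 bootstraps, of per-sequence fraction reacted measured by streptavidin capture, triplicate qPCR and Illumina sequencing. Mutagenized RNA pools with a 21-nt variable region (0.43 μM) were reacted with each biotinyl-aminoacyl-oxazolone at 2–1250 μM in 50 μL HEPES/NaCl/KCl/MgCl2/CaCl2 buffer with 5% acetonitrile, pH 6.9–7.0, for 90 minutes at room temperature.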

In data set [2] the test system is biotinyl-Leu-oxazolone. The experiment in a line: self-aminoacylation, catalytic enhancement (BLO) (fold over background); higher = more active; k-Seq, kA / k0A0; sequences stand for … in GGGAAUGGAUCCACAUCUACGAAUUC…UUCACUGCAGACUUGACGAAGCUG
In a few lines:
as §1

Data set [3] has as its system biotinyl-Trp-oxazolone. The experiment in a line: self-aminoacylation, catalytic enhancement (BWO) (fold over background); higher = more active; k-Seq, kA / k0A0; sequences stand for … in GGGAAUGGAUCCACAUCUACGAAUUC…UUCACUGCAGACUUGACGAAGCUG
In a few lines:
as §1

Data set [4] has as its system biotinyl-Met-oxazolone. The data set can be described thus: self-aminoacylation, catalytic enhancement (BMO) (fold over background); higher = more active; k-Seq, kA / k0A0; sequences stand for … in GGGAAUGGAUCCACAUCUACGAAUUC…UUCACUGCAGACUUGACGAAGCUG
In a few lines: as §1

Fewer inactive variants are shown than the library holds.

For “UUACUUCAAACAAUCGGUCGG [Fam1A.1 aminoacylation ribozyme variant]”, the figures for the self-aminoacylation in data set [1], in data set [2] and in data set [3] were 18.1, 2.1 and 14.5, respectively.

As to “AAGCUUGCUAAUAGCCGCAAG [Fam3.1 aminoacylation ribozyme variant]”, the self-aminoacylation in data set [1] was found to be 3.2; in data set [4], 2.25; in data set [2], 2.58; in data set [3] it was 3.08.

Regarding “CUGCUUCAAACAAUCGGUCUC [Fam1A.1 aminoacylation ribozyme variant]”, the self-aminoacylation in data set [1] was 107; in data set [2], 2.47; in data set [3], 46.

Turning to “AUUACCCUGGUCAUCCAGAGA [Fam2.1 aminoacylation ribozyme variant]”, the self-aminoacylation in data set [1] was 2.38; in data set [2], 2.03.

As to “CUACCUCAAACAAUCGGCCUG [Fam1A.1 aminoacylation ribozyme variant]”, the self-aminoacylation was 3.13 in data set [1], 2.11 in data set [2] and 5.05 in data set [3].

Regarding “AAGACUGCUAAUAGUCGCAAG [Fam3.1 aminoacylation ribozyme variant]”, the values for the self-aminoacylation in data set [1], in data set [4] and in data set [3] were 18.5, 2.04 and 4.56, respectively.

Consider “GCACUCUUCAAGCAAUCGGUC [Fam1B.1 aminoacylation ribozyme variant]”, for which the self-aminoacylation in data set [1] stood at 6.58; in data set [2] it was 2.07; in data set [3] it was 5.27.

“CUACCUCAAACAUUCGGUCUG [Fam1A.1 aminoacylation ribozyme variant]”: the self-aminoacylation in data set [1] is 10.3; in data set [2], 2.13; in data set [3] it was 3.08.

Consider “CCACUCUUCAAGCAAUCGGGC [Fam1B.1 aminoacylation ribozyme variant]”, for which the self-aminoacylation in data set [2] was 2.21.

Take “AUUCACUUAGCUCAUCGGGUG [Fam2.2 aminoacylation ribozyme variant]”: the results for the self-aminoacylation in data set [1] and in data set [2] were 4.96 and 2.03, respectively.

As for “CCGCACUUCAAACAAUCGGUC [Fam1B.1 aminoacylation ribozyme variant]”, the figures for the self-aminoacylation in data set [1], in data set [2] and in data set [3] were 157, 3.41 and 74.3, respectively.

Turning to “AAGCUUGCUAAUAGUCGCAGG [Fam3.1 aminoacylation ribozyme variant]”, the values for the self-aminoacylation in data set [1], in data set [2] and in data set [3] were 7.7, 2.14 and 2.15, respectively.

As for “AUUAACCUGGCCAUCGAGUGA [Fam2.1 aminoacylation ribozyme variant]”, the self-aminoacylation came to 2.01 in data set [4], 2.11 in data set [2] and 2.78 in data set [3].

Take “CCACACUUCAAGCAGUCGCUC [Fam1B.1 aminoacylation ribozyme variant]”: the self-aminoacylation in data set [1] was 4.31; in data set [2], 2.06.

Take “AUUCACCUAGAUAAUCGGGUG [Fam2.2 aminoacylation ribozyme variant]”: the self-aminoacylation amounted to 12.9 in data set [1], 2.25 in data set [4] and 2.79 in data set [2].

Regarding “AUUCACCUAGGUCCUCGGGAG [Fam2.2 aminoacylation ribozyme variant]”, the figures for the self-aminoacylation in data set [1] and in data set [2] were 2.83 and 2.11, respectively.

As for “CCUCUUCAAACAAUCGGUCUG [Fam1A.1 aminoacylation ribozyme variant]”, the self-aminoacylation in data set [1] was found to be 85.8; in data set [2], 2.36; in data set [3], 38.6.

In the case of “AUUACCCUGGUCCUCGAGUGG [Fam2.1 aminoacylation ribozyme variant]”, the values for the self-aminoacylation in data set [1] and in data set [4] were 2.88 and 2.1, respectively.

Consider “AAGAUUGUUAAUAGUCGCAAG [Fam3.1 aminoacylation ribozyme variant]”, for which the values for the self-aminoacylation in data set [1], in data set [4] and in data set [3] were 2.81, 2.14 and 2.65, respectively.

For the sequence “AUUCUCCUAGGUCAUAGGGUG [Fam2.2 aminoacylation ribozyme variant]”, the values for the self-aminoacylation in data set [1], in data set [4] and in data set [2] were 8.67, 2.33 and 2.94, respectively.

Regarding “AAGUGUGCUAAUAGUCGCCAG [Fam3.1 aminoacylation ribozyme variant]”, the results for the self-aminoacylation in data set [1], in data set [2] and in data set [3] were 2.38, 2.2 and 2.33, respectively.

Turning to “CUACUUCAAACAAUCGAUGUG [Fam1A.1 aminoacylation ribozyme variant]”, the self-aminoacylation in data set [1] stood at 3.31; in data set [4], 2.24.

For the sequence “CCACAAUUCAACCAAUCGGUC [Fam1B.1 aminoacylation ribozyme variant]”, the self-aminoacylation in data set [1] was determined as 6.75; in data set [3], 5.9.

For the sequence “AACUCUGCUAAUAGUCGCAAG [Fam3.1 aminoacylation ribozyme variant]”, the self-aminoacylation came to 16.4 in data set [1], 2.46 in data set [4] and 5.56 in data set [3].

In the case of “CGACUUCAAACAAUCGGUGUG [Fam1A.1 aminoacylation ribozyme variant]”, the values for the self-aminoacylation in data set [1], in data set [2] and in data set [3] were 10.9, 2.54 and 9.56, respectively.

On to “UCAGACUUCAAGCAAUCGGUC [Fam1B.1 aminoacylation ribozyme variant]”, for which the results for the self-aminoacylation in data set [1], in data set [2] and in data set [3] were 63.8, 2.62 and 37.2, respectively.

On to “CAACUUCAAACAAUCGGUCUC [Fam1A.1 aminoacylation ribozyme variant]”, for which the self-aminoacylation is 75.3 in data set [1] and 37.7 in data set [3].

“AUUACCCUGGGCUUCGAGUGA [Fam2.1 aminoacylation ribozyme variant]”: the self-aminoacylation is 2.01 in data set [4] and 2.03 in data set [3].

“CAAAUUCAAACAAUCGGUCUG [Fam1A.1 aminoacylation ribozyme variant]”: the self-aminoacylation in data set [1] is 6.39; in data set [3], 3.94.

For the sequence “CCACACUUCAAAUAAUCGGUC [Fam1B.1 aminoacylation ribozyme variant]”, the results for the self-aminoacylation in data set [1] and in data set [3] were 23.8 and 13.7, respectively.

As for “CUACUUCAAACAAUCGGUCUG [Fam1A.1 aminoacylation ribozyme variant]”, the self-aminoacylation in data set [1] turned out to be 67.9; in data set [3] it was 31.4.

On to “AAGAAUGCUAAUAGUCGCAAG [Fam3.1 aminoacylation ribozyme variant]”, for which the self-aminoacylation in data set [1] amounted to 12.5; in data set [4] it was 2.19; in data set [3] it was 3.69.

Consider “AAGCUUGAUAAUAGUCGCAAG [Fam3.1 aminoacylation ribozyme variant]”, for which the figures for the self-aminoacylation in data set [1] and in data set [3] were 2.72 and 2.02, respectively.

Take “CUACUUCAAUAAAUCGGUCUG [Fam1A.1 aminoacylation ribozyme variant]”: the self-aminoacylation is 7.8 in data set [1] and 4.71 in data set [3].

Regarding “AAGGUUGCUAAUAGUCGCAGG [Fam3.1 aminoacylation ribozyme variant]”, the self-aminoacylation in data set [1] was 3.23; in data set [3] it was 2.28.

“ACACACUUCAAGCAAUCGGUC [Fam1B.1 aminoacylation ribozyme variant]”: the results for the self-aminoacylation in data set [1] and in data set [3] were 27.1 and 13.1, respectively.

As to “CUACUUCAACCAAUCGGUAUG [Fam1A.1 aminoacylation ribozyme variant]”, the self-aminoacylation was determined as 9.31 in data set [1] and 4.25 in data set [3].

Regarding “CCACACUUCAAUCGAUCGGUC [Fam1B.1 aminoacylation ribozyme variant]”, the self-aminoacylation in data set [1] was 2.48; in data set [3] it was 2.43.

Take “CUACUUCAAAGAAUCGGCCUG [Fam1A.1 aminoacylation ribozyme variant]”: the self-aminoacylation in data set [1] is 6.89; in data set [2], 2; in data set [3] it was 8.54.

As to “CCAGGCUUCAAGCAAUCGGUC [Fam1B.1 aminoacylation ribozyme variant]”, the self-aminoacylation in data set [1] turned out to be 83.5; in data set [2] it was 2.42; in data set [3], 40.8.

For the sequence “AAGUUUGCCAAUAGUCGCACG [Fam3.1 aminoacylation ribozyme variant]”, the figures for the self-aminoacylation in data set [4] and in data set [2] were 2.3 and 2.05, respectively.

“AUUACCCUCGUCGUCGAGUGA [Fam2.1 aminoacylation ribozyme variant]”: the self-aminoacylation worked out at 3.84 in data set [1], 2.04 in data set [2] and 2.11 in data set [3].

For “CUAAUUCAAACAAUCGGUCUC [Fam1A.1 aminoacylation ribozyme variant]”, the results for the self-aminoacylation in data set [1] and in data set [3] were 6.39 and 2.9, respectively.

Regarding “CUACGUCAAAAAAUCGGUCUG [Fam1A.1 aminoacylation ribozyme variant]”, the self-aminoacylation was determined as 5.5 in data set [1] and 2.35 in data set [3].

As to “CUACUUCAAACAAUCGGUCUC [Fam1A.1 aminoacylation ribozyme variant]”, the self-aminoacylation amounted to 52.6 in data set [1] and 24.6 in data set [3].

“CCUCACUUCAAGAAAUCGGUC [Fam1B.1 aminoacylation ribozyme variant]”: the results for the self-aminoacylation in data set [1] and in data set [3] were 11 and 7.71, respectively.
